The target in the experiment is T1, 6His-msfGFP-TEV-Mis18FL (S. pombe, UniProt Q9P802 1-194).
T1 sequence (looked up): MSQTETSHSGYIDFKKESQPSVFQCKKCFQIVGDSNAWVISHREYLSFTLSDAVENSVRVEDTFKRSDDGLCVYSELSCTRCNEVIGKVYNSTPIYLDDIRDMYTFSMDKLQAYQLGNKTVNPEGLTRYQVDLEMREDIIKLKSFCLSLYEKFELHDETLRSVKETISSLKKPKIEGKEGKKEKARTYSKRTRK
Description: pull-down.

The record followed here is publication doi:10.1101/2023.07.03.547485 (bioRxiv, 2023).

B1: 6His-MBP-Sad1(2-167) (domain or fragment, S. pombe, UniProt Q09825 2-167, looked up)
chain: FTNTPVGGKRERQNGAHPAWSTLGANSAQIHQNTADLASKMHKLRYTKIRSPPTRVSIESITPKQRFPAPNFEQAYHSNIRYEQEESDNEEFENVVKNGHEASTNVFYESDGDDEEFVNEEYENSIDEESDDEGYSLNEDTTATNASFRYPMNQRSTRKSQFYSSK
For B1, the binding result is “binds”.
